Assay results published in patent publication US9988424 (DUKE UNIVERSITY, dated 2018).
Changes are numbered by the printed parent chain. Where two headings read alike, the source gives them in different places.

Key:
[1] = biological target: C.CAP206 gp140CF.12 (HIV-1); experiment: ELISA
[2] = biological target: AE.A244 V1V2 Tags (HIV-1); experiment: ELISA
[3] = biological target: T1, AE.A244 gp120 delta 11 (HIV-1); experiment: ELISA
T1 construct: also called E.A244gp120Δ11; AE.A244 Δ11 gp120

[4] = biological target: C.1086 V1V2 Tags (HIV-1); experiment: ELISA
[5] = biological target: T2, gp70 C.1086 V1/V2 (HIV-1 V1V2 on murine leukemia virus gp70); experiment: ELISA
T2 construct: also called C.gp70 1086C V1V2; C.1086gp70V1V2
T2 chain: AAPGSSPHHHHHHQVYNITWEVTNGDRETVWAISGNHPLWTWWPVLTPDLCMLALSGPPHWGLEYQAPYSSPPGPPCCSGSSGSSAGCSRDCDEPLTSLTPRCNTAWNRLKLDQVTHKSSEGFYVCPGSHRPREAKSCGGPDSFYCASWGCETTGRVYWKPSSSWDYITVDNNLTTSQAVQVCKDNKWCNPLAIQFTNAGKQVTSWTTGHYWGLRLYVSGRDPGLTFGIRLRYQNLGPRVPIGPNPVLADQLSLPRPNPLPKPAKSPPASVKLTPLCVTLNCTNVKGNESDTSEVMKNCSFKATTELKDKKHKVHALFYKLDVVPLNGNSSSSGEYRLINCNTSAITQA

[6] = biological target: T3, gp70 B.CaseA2 V1/V2/V169K (HIV-1 V1V2 on murine leukemia virus gp70); experiment: ELISA
T3 chain: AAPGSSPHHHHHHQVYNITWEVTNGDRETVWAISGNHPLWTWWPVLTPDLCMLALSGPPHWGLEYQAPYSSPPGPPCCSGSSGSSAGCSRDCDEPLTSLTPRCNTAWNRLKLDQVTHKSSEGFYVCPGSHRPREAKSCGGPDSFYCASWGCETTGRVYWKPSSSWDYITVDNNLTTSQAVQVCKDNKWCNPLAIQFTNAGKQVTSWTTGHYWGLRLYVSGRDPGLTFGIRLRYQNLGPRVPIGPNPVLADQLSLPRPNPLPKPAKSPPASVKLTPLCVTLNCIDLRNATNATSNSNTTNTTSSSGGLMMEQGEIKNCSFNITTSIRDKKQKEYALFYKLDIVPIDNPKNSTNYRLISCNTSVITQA

[7] = biological target: T4, gp70 B.CaseA2 V1/V2/V169K/E172V/E173H (HIV-1 V1V2 on murine leukemia virus gp70); experiment: ELISA
T4 construct: also called gp70 B.CaseA2 V1/V2 Mut3
T4 chain: T3 chain with E332V, Y333H

[8] = biological target: AE.A244 V1V2 Tags (HIV-1); experiment: ELISA; remark: listed apart in the source
[9] = biological target: T1, AE.A244 gp120 delta 11; experiment: ELISA; remark: listed apart in the source
[10] = biological target: C.1086 V1V2 Tags (HIV-1); experiment: ELISA; remark: listed apart in the source
[11] = biological target: T2, gp70 C.1086 V1/V2; experiment: ELISA
[12] = biological target: Env of AE.92TH023 virus (HIV-1); experiment: cell-based or functional assay
[13] = biological target: Env of AE.CM244 virus (HIV-1); experiment: cell-based or functional assay
[14] = biological target: Env of 92TH023 K169Q virus (HIV-1); experiment: cell-based or functional assay
[15] = biological target: Env of TH023.6.I181L virus (HIV-1); experiment: cell-based or functional assay
[16] = biological target: Env of 703357.c02 virus (HIV-1); experiment: cell-based or functional assay
[17] = biological target: Env of 703357.2.Q169K virus (HIV-1); experiment: cell-based or functional assay
[18] = biological target: Env of 703357.2.Q169KR170Q virus (HIV-1); experiment: cell-based or functional assay
[19] = biological target: Env of 703357.2.I181L virus (HIV-1); experiment: cell-based or functional assay
[20] = biological target: Env of 703357.2.Q169KI181L virus (HIV-1); experiment: cell-based or functional assay
[21] = biological target: Env of 703357.2.Q169KR170QI181L virus (HIV-1); experiment: cell-based or functional assay
[22] = biological target: Env of 427299.c12 virus (HIV-1); experiment: cell-based or functional assay
[23] = biological target: Env of 427299.c12.Q169K virus (HIV-1); experiment: cell-based or functional assay
[24] = biological target: Env of 427299.c12.H81L virus (HIV-1); experiment: cell-based or functional assay
[25] = biological target: Env of 427299.c12.KL.Q169K/I181L virus (HIV-1); experiment: cell-based or functional assay
[26] = biological target: Env of CM244NW.4.K169Q virus (HIV-1); experiment: cell-based or functional assay
[27] = biological target: Env of CM244NW.6.I181L virus (HIV-1); experiment: cell-based or functional assay
[28] = biological target: T5, AE.A244 V1/V2 Tags N156QN160Q (HIV-1); experiment: ELISA; markers as in the legend printed on D00157
T5 chain: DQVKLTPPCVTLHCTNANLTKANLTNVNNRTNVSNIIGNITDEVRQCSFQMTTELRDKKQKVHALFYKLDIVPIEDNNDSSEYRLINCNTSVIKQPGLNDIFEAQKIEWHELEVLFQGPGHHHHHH

B1: 697D (antibody, V domains shown)
VH: QVQLVQSGAEVKKPGSSVKVSCKASGGNFNTYTISWVRQAPGQGLEWMGRIIPIFGIVNPAQKFPGRVTINVDKSTNTAYMELSSLRSEDTAVYYCATSGVGLHFGYFDYWGQGTQVTVSS
VL: QSVLTQPPSVSGAPGQRVTISCTGSSSNIGAHYDVHWYQQLPGTAPKLLIYGNSNRPSGVPDRFSGSKSGTSASLAITGLQAEDEADYYCQSYDSSLSGYVFGTGTKVTVL
notes: also called mAb 697D; V2 conformational mAb 697D
[1]
  EC50: 0.1 nM
[2]
  EC50: 0.1 nM
[3]
  EC50: 0.23 nM
[4]
  EC50: 0.23 nM
[5]
  EC50: 0.067 nM
[6]
  EC50: 0.14 µg/mL
[7]
  EC50: 0.04 µg/mL
[8]
  EC50: 0.1 nM
[9]
  EC50: 0.23 nM
[10]
  EC50: 0.23 nM
[11]
  EC50: 0.067 nM

B2: 697D reverted unmutated ancestor antibody (antibody, V domains shown)
VH: QVQLVQSGAEVKKPGSSVKVSCKASGGTFSSYTISWVRQAPGQGLEWMGRIIPILGIANYAQKFQGRVTITADKSTSTAYMELSSLRSEDTAVYYCATSGVGLHFGYFDYWGQGTLVTVSS
VL: B1 VL with H32G
notes: also called 697D RUA
[3]
  EC50: > 667 nM
[9]
  EC50: > 667 nM

B3: PG16 (antibody, V domains shown)
VH: QEQLVESGGGVVQPGGSLRLSCLASGFTFHKYGMHWVRQAPGKGLEWVALISDDGMRKYHSDSMWGRVTISRDNSKNTLYLQFSSLKVEDTAMFFCAREAGGPIWHDDVKYYDFNDGYYNYHYMDVWGKGTTVTVSS
VL: QSALTQPASVSGSPGQTITISCNGTSSDVGGFDSVSWYQQSPGKAPKVMVFDVSHRPSGISNRFSGSKSGNTASLTISGLHIEDEGDYFCSSLTDRSHRIFGGGTKVTVL
notes: also called mAb PG16; bnAb PG16
[1]
  EC50: 16 nM
[2]
  EC50: 3.7 nM
[6]
  binding result: no binding
[7]
  binding result: no binding
[8]
  EC50: 3.7 nM

B4: CH59 reverted unmutated ancestor antibody (antibody, V domains shown)
VH: EVQLVESGGGLVQPGRSLRLSCAASGFTFDDYAMHWVRQAPGKGLEWVSGISWNSGSIGYADSVKGRFTISRDNAKNSLYLQMNSLRAEDTALYYCAKDSPRGELPFDYWGQGTLVTVSS
VL: SYELTQPPSVSVSPGQTARITCSGDALPKKYAYWYQQKSGQAPVLVIYEDSKRPSGIPERFSGSSSGTMATLTISGAQVEDEADYYCYSTDSSGNHRVFGGGTKLTVL
notes: also called CH59 RUA; CH59_RUA
[2]
  EC50: 0.13 nM
[3]
  EC50: 15.5 nM
[4]
  EC50: 50.1 nM
[5]
  EC50: 11.3 nM
[8]
  EC50: 0.13 nM
[9]
  EC50: 15.5 nM
[10]
  EC50: 50.1 nM
[11]
  EC50: 11.3 nM
[12]
  ID50 assayed in TZM-bl cells, TH023.6: > 50 µg/mL
[13]
  ID50 assayed in TZM-bl cells, CM244.ec1: > 50 µg/mL
[14]
  ID50 assayed in TZM-bl cells, TH023.6.K169Q: > 50 µg/mL
[15]
  ID50 assayed in TZM-bl cells, TH023.6.I181L: > 50 µg/mL
[16]
  ID50 assayed in TZM-bl cells, 703357.c02: > 50 µg/mL
[17]
  ID50 assayed in TZM-bl cells, 703357.2.Q169K: > 50 µg/mL
[18]
  ID50 assayed in TZM-bl cells, 703357.2.Q169KR170Q: > 50 µg/mL
[19]
  ID50 assayed in TZM-bl cells, 703357.2.I181L: > 50 µg/mL
[20]
  ID50 assayed in TZM-bl cells, 703357.2.Q169KI181L: > 50 µg/mL
[21]
  ID50 assayed in TZM-bl cells, 703357.2.Q169KR170QI181L: > 50 µg/mL
[22]
  ID50 assayed in TZM-bl cells, 427299.c12: > 50 µg/mL
[23]
  ID50 assayed in TZM-bl cells, 427299.c12.Q169K: > 50 µg/mL
[24]
  ID50 assayed in TZM-bl cells, 427299.c12.H81L: > 50 µg/mL
[25]
  ID50 assayed in TZM-bl cells, 427299.c12.KL.Q169K/I181L: > 50 µg/mL
[26]
  ID50 assayed in TZM-bl cells, CM244NW.4.K169Q: > 50 µg/mL
[27]
  ID50 assayed in TZM-bl cells, CM244NW.6.I181L: > 50 µg/mL
[28]
  EC50 (read off the curve): ~0.4 µg/mL

B5: CH58 reverted unmutated ancestor antibody (antibody, V domains shown)
VH: EVQLVQSGAEVKKPGESLKISCKGSGYSFTSYWIGWVRQMPGKGLEWMGIIYPGDSDTRYSPSFQGQVTISADKSISTAYLQWSSLKASDTAMYYCARLGGRYYYDSSGYYYFDYWGQGTLVTVSS
VL: NFMLTQPHSVSESPGKTVTISCTRSSGSIASNYVQWYQQRPGSSPTTVIYEDNQRPSGVPDRFSGSIDSSSNSASLTISGLKTEDEADYYCQSYDSSSWVFGGGTKLTVL
notes: also called CH58 RUA; CH58_RUA
[5]
  EC50: > 66.7 nM
[11]
  EC50: > 66.7 nM
[12]
  ID50 assayed in TZM-bl cells, TH023.6: > 50 µg/mL
[13]
  ID50 assayed in TZM-bl cells, CM244.ec1: > 50 µg/mL
[14]
  ID50 assayed in TZM-bl cells, TH023.6.K169Q: > 50 µg/mL
[15]
  ID50 assayed in TZM-bl cells, TH023.6.I181L: > 50 µg/mL
[16]
  ID50 assayed in TZM-bl cells, 703357.c02: > 50 µg/mL
[17]
  ID50 assayed in TZM-bl cells, 703357.2.Q169K: > 50 µg/mL
[18]
  ID50 assayed in TZM-bl cells, 703357.2.Q169KR170Q: > 50 µg/mL
[19]
  ID50 assayed in TZM-bl cells, 703357.2.I181L: > 50 µg/mL
[20]
  ID50 assayed in TZM-bl cells, 703357.2.Q169KI181L: > 50 µg/mL
[21]
  ID50 assayed in TZM-bl cells, 703357.2.Q169KR170QI181L: > 50 µg/mL
[22]
  ID50 assayed in TZM-bl cells, 427299.c12: > 50 µg/mL
[23]
  ID50 assayed in TZM-bl cells, 427299.c12.Q169K: > 50 µg/mL
[24]
  ID50 assayed in TZM-bl cells, 427299.c12.H81L: > 50 µg/mL
[25]
  ID50 assayed in TZM-bl cells, 427299.c12.KL.Q169K/I181L: > 50 µg/mL
[26]
  ID50 assayed in TZM-bl cells, CM244NW.4.K169Q: > 50 µg/mL
[27]
  ID50 assayed in TZM-bl cells, CM244NW.6.I181L: > 50 µg/mL

B6: PG9 reverted unmutated ancestor antibody (antibody, V domains shown)
VH: QVQLVESGGGVVQPGRSLRLSCAASGFTFSSYGMHWVRQAPGKGLEWVAVISYDGSNKYYADSVKGRFTISRDNSKNTLYLQMNSLRAEDTAVYYCAREAGGPDYRNGYNYYDFWSGYYNYYYMDVWGKGTTVTVSS
VL: QSALTQPASVSGSPGQSITISCTGTSSDVGSYNLVSWYQQHPGKAPKLMIYEVSKRPSGVSNRFSGSKSGNTASLTISGLQAEDEADYYCCSLTSTRRWVFGGGTKLTVL
notes: also called PG9 RUA; PG9_RUA
[28]
  binding result: no binding (tested: 100 ug/ml)

B7: PG16 reverted unmutated ancestor antibody (antibody, V domains shown)
VH: B6 VH with D104I, Y105W, R106H, N107D, G108D, Y109V, N110K, W115N, S116D, N120Y
VL: B6 VL with S95D, T96R, R97S, R98H, W99R, V100I
notes: also called PG16 RUA; PG16_RUA
[28]
  binding result: no binding (tested: 100 ug/ml)
